# Target: human neonatal Fc-receptor (FcRn), soluble extracellular domain with His-Avi Tag, co-expressed with beta-2-microglobulin (human) (UniProt P55899)
# Assay: FcRn affinity chromatography
Substance,relative shift of retention time [min],retention time on FcRn affinity column [min]
"bispecific antibody (not identified) assembled using the knobs-into-holes technology, no FcRn affecting mutation",,51.8
"bispecific antibody (not identified, knobs-into-holes), one chain with H310A",,48.4
"bispecific antibody (not identified, knobs-into-holes), one chain with H435A",,48.8
"bispecific antibody (not identified, knobs-into-holes), one chain with I253A",,48.8
"bispecific antibody (not identified, knobs-into-holes), one chain with L251D/L314D/L432D",,46.3
"bispecific antibody (not identified, knobs-into-holes), one chain with M252Y/S254T/T256E",,56.2

# Further lines, results first:
relative shift of retention time [min],retention time on FcRn affinity column [min],Substance
0.3 to 0.4,,IgG1 antibody (not identified) with L234A/L235A/P329G and H435A in both Fc-region polypeptides
0.3 to 0.4,,IgG1 antibody (not identified) with L234A/L235A/P329G and I253A in both Fc-region polypeptides
,46.7,"bispecific antibody (not identified, knobs-into-holes), one chain with H310A/H433A/Y436A"
,46.6,"bispecific antibody (not identified, knobs-into-holes), one chain with I253A/H310A/H435A"

# Target: human neonatal Fc-receptor (FcRn), soluble extracellular domain with His-Avi Tag, co-expressed with beta-2-microglobulin (human) (UniProt P55899)
# Assay: FcRn affinity chromatography, pH gradient
row,FcRn-affinity column retention time [min],Substance
1,41.3,IgG1 antibody (not identified) with L234A/L235A/P329G and Y436A in both Fc-region polypeptides

# Reference: patent US20160151487A1
